Results: patent US10363306B2, “Cytokines and neuroantigens for treatment of immune disorders” (East Carolina University, priority 2009, dated 2019)

Experiments:
EAE in Lewis rats = experiment: Prevention of EAE by pretreatment before encephalitogenic challenge; format: in vivo
BN-GP T cells = experiment: IFNβ anti-proliferative activity in IL-2 stimulated cultures of BN-GP T cells; format: cell-based, rat; conditions: for Biological activity of IFNβ in expression supernatants: transient transfection of HEK293 cells
Method: FIG. 1. The IFNβ-NAg his-tagged fusion protein was biologically active and was purified on nickel resins. (A) To assess whether IFNβ-NAg induced class I MHC expression, thymocytes (5×10^6/ml in complete RPMI) were cultured with or without IFNβ-NAg for 2 days and then were stained with B5 (anti-MHC-I), OX18 (anti-MHC-I), R73 (anti-TCRβ), or OX81 (anti-IL4; isotype control) and were analyzed by flow cytometry. (B) To assess IFNβ-mediated anti-proliferative activity, supernatants from two independently derived IFNβ-NAg expression systems as well as supernatants from several control expression systems were added at designated titrations (x-axis) to IL-2 stimulated cultures of BN-GP T cells. (C) To assess the specificity of anti-proliferative activity, baculovirus supernatants containing IFNβ-NAg were added at designated titrations to cultures of rat (R1T, BN-GP, RsL.11T, RsL.11, or Conal.8D9) or mouse (CTLL) T cells. Proliferative assays (B & C) were pulsed with [^3H]thymidine on the second day of a 3-day culture. (D) Shown is a representative SDS-PAGE analysis of purified IFNβ-NAg.
FIG. 2. Structure-function analysis of the cytokine and NAg domains of IFNβ fusion proteins. (A) Expression supernatants containing designated IFNβ fusion proteins (see Table 2) were added to cultures of BN-GP T cells at designated titrations (x-axis). (B) The IFNβ-EK-NAg-6his or IFNβ-EK-6his fusion genes were inserted into the pCEP4 expression vector (Invitrogen). Inserts were verified by DNA sequencing, and the genes were expressed by transient transfection of HEK293 cells. Independently derived expression systems of IFNβ-EK-NAg-6his or IFNβ-EK-6his (3 each) were compared in the BN-GP T cell anti-proliferative assay. (C) Independently purified preparations (2 each) of each IFN-β fusion protein (IFNβ-NAg from HEK293 cells, IFNβ-NAg from baculovirus, and IFN-β from HEK293 cells) were added at designated concentrations to assess anti-proliferative activity. Two independently purified preparations of the same fusion protein were tested to verify the reliability of activity for each type of protein. The x-axis was based on the exponent of the molar concentration. For example, a concentration of 100 nM was represented as Log [10^−7]=Log10) (10^−7M)=−7 and was plotted by the exponent of −7. For these experiments (A-C), BN-GP T cells were cultured in IL-2. (D) The MBP-specific RsL.11 T cell clone and irradiated splenic APC were cultured with designated concentrations of purified IFNβ-NAg or GPMBP in the presence or absence of the OX6 anti-MHC-II mAb. (E) Five preparations of purified IFNβ-NAg and six preparations of purified IFN-β were tested for antigenic activity in cultures of RsL.11 T cells and irradiated splenic APC.
The RsL.11 MBP-specific clone was a stable, IL-2 dependent line derived from Lewis rats sensitized with rat MBP in CFA (Mannie, M. D., and M. S. Norris. 2001. MHC class-II-restricted antigen presentation by myelin basic protein-specific CD4+ T cells causes prolonged desensitization and outgrowth of CD4-responders. Cell Immunol 212:51-62). The RsL.11T clone was a transformed variant of the RsL.11 clone. […]

[1] = Table 4 Exp. 1 & 2 combined, HEK293-derived, 1 nmole days −21, −14, −7, challenge day 0
[2] = Table 4 Exp. 1, HEK293-derived, 1 nmole days −21, −14, −7, challenge day 0
[3] = Table 4 Exp. 1, HEK293-derived, 1 nmole days −21, −14, −7, challenge day 0, severe = partial or full hindlimb paralysis
[4] = Table 4 Exp. 1, HEK293-derived, 1 nmole in saline days −21, −14, −7, challenge DHFR-NAg in CFA day 0
[5] = Table 4 Exp. 2, HEK293-derived, 1 nmole days −21, −14, −7, challenge day 0
[6] = Table 4 Exp. 2, HEK293-derived, 1 nmole days −21, −14, −7, challenge day 0, severe = partial or full hindlimb paralysis
[7] = Table 4 Exp. 2, HEK293-derived, 1 nmole in saline days −21, −14, −7, challenge DHFR-NAg in CFA day 0
[8] = Table 3, baculovirus-derived, 1 nmole s.c. days −21, −14, −7, challenge day 0, severe = EP or P
[9] = Table 3, baculovirus-derived, 1 nmole s.c. in saline days −21, −14, −7, challenge 50 ug DHFR-NAg in CFA day 0
[10] = Table 5 Exp 1-2 compiled, 1 nmole s.c. days −21, −14, −7 (IFNβ + NAg: separate injections), challenge day 0
[11] = Table 5 Exp 1, 1 nmole s.c. in saline days −21, −14, −7 (IFNβ + NAg: separate injections <0.5 cm apart), challenge DHFR-NAg in CFA day 0
[12] = Table 5 Exp 2, 1 nmole s.c. in saline days −21, −14, −7 (IFNβ + NAg: separate injections <0.5 cm apart), challenge DHFR-NAg in CFA day 0

B1: IFNβ: Rat interferon beta cytokine with enterokinase linker and 6-histidine sequence, no neuroantigen (protein)
chain: IDYKQLQFRQSTSIRTCQKLLRQLNGRLNLSYRTDFKIPMEVMHPSQMEKSYTAFAIQVMLQNVFLVFRSNFSSTGWNETIVESLLDELHQQTELLEIILKEKQEERLTWVTSTTTLGLKSYYWRVQRYLKDKKYNSYAWMVVRAEVFRNFSIILRLNRNFQNGDDDDKGHHHHHH
Incidence of EAE (EAE in Lewis rats; [1]): 8 of 8
Incidence of severe EAE (EAE in Lewis rats; [1]): 8 of 8
Mean # days with severe EAE (EAE in Lewis rats; [1]): 3.4 ± 0.8 days
Mean cumulative score (EAE in Lewis rats; [1]): 22.8 ± 4.0
Mean maximal score (EAE in Lewis rats; [1]): 2.9 ± 0.4
Median cumulative score (EAE in Lewis rats; [1]): 22.5
Median maximal score (EAE in Lewis rats; [1]): 3.0
Mean # days with severe EAE (EAE in Lewis rats; [2]): 3.0 ± 0.4 days
Incidence of severe EAE (EAE in Lewis rats; [3]): 4 of 4
Incidence of EAE (EAE in Lewis rats; [4]): 4 of 4
Mean cumulative score (EAE in Lewis rats; [4]): 22.0 ± 2.6
Mean maximal score (EAE in Lewis rats; [4]): 3.0 ± 0.0
Median cumulative score (EAE in Lewis rats; [4]): 21.3
Median maximal score (EAE in Lewis rats; [4]): 3.0
Mean # days with severe EAE (EAE in Lewis rats; [5]): 3.9 ± 0.9 days
Incidence of severe EAE (EAE in Lewis rats; [6]): 4 of 4
Incidence of EAE (EAE in Lewis rats; [7]): 4 of 4
Mean cumulative score (EAE in Lewis rats; [7]): 23.7 ± 5.3
Mean maximal score (EAE in Lewis rats; [7]): 2.8 ± 0.5
Median cumulative score (EAE in Lewis rats; [7]): 23.6
Median maximal score (EAE in Lewis rats; [7]): 3.0
Biological activity of IFNβ in expression supernatants (BN-GP T cells): Potent activity

B2: IFNβ-NAg: Fusion protein: rat IFNβ, enterokinase linker (GDDDDKG), encephalitogenic 73-87 peptide of guinea pig MBP, C-terminal 6-histidine tag (protein)
chain: IDYKQLQFRQSTSIRTCQKLLRQLNGRLNLSYRTDFKIPMEVMHPSQMEKSYTAFAIQVMLQNVFLVFRSNFSSTGWNETIVESLLDELHQQTELLEIILKEKQEERLTWVTSTTTLGLKSYYWRVQRYLKDKKYNSYAWMVVRAEVFRNFSIILRLNRNFQNGDDDDKGPQKSQRSQDENPVVHHHHHH
Incidence of severe EAE (EAE in Lewis rats; [8]): 4 of 9
Mean # days with severe EAE (EAE in Lewis rats; [8]): 1.0 ± 1.3 days
Incidence of EAE (EAE in Lewis rats; [9]): 9 of 9
Mean cumulative score (EAE in Lewis rats; [9]): 3.4 ± 2.7
Mean maximal score (EAE in Lewis rats; [9]): 1.4 ± 0.9
Median cumulative score (EAE in Lewis rats; [9]): 2.5
Median maximal score (EAE in Lewis rats; [9]): 1.0
Incidence of EAE (EAE in Lewis rats; [1]): 8 of 8
Incidence of severe EAE (EAE in Lewis rats; [1]): 4 of 8
Mean # days with severe EAE (EAE in Lewis rats; [1]): 0.8 ± 1.0 days
Mean cumulative score (EAE in Lewis rats; [1]): 7.0 ± 5.3
Mean maximal score (EAE in Lewis rats; [1]): 1.5 ± 0.9
Median cumulative score (EAE in Lewis rats; [1]): 5.9
Median maximal score (EAE in Lewis rats; [1]): 1.5
Mean # days with severe EAE (EAE in Lewis rats; [2]): 0.6 ± 1.3 days
Incidence of severe EAE (EAE in Lewis rats; [3]): 1 of 4
Incidence of EAE (EAE in Lewis rats; [4]): 4 of 4
Mean cumulative score (EAE in Lewis rats; [4]): 6.3 ± 6.7
Mean maximal score (EAE in Lewis rats; [4]): 1.3 ± 1.2
Median cumulative score (EAE in Lewis rats; [4]): 3.9
Median maximal score (EAE in Lewis rats; [4]): 1.0
Mean # days with severe EAE (EAE in Lewis rats; [5]): 1.0 ± 0.7 days
Incidence of severe EAE (EAE in Lewis rats; [6]): 3 of 4
Incidence of EAE (EAE in Lewis rats; [7]): 4 of 4
Mean cumulative score (EAE in Lewis rats; [7]): 7.8 ± 4.3
Mean maximal score (EAE in Lewis rats; [7]): 1.6 ± 0.8
Median cumulative score (EAE in Lewis rats; [7]): 8.9
Median maximal score (EAE in Lewis rats; [7]): 2.0
% mean maximal weight loss (EAE in Lewis rats; [10]): 12.6 ± 3.6%
Incidence of EAE (EAE in Lewis rats; [10]): 14 of 14
Incidence of severe EAE (EAE in Lewis rats; [10]): 7 of 14
Mean # days with severe EAE (EAE in Lewis rats; [10]): 1.0 ± 1.2 days
Mean cum. score (EAE in Lewis rats; [10]): 7.6 ± 6.2
Mean maximal score (EAE in Lewis rats; [10]): 1.5 ± 1.1
Median cum. score (EAE in Lewis rats; [10]): 5.5
Median maximal score (EAE in Lewis rats; [10]): 1.5
% mean maximal weight loss (EAE in Lewis rats; [11]): 14.8 ± 1.9%
Incidence of EAE (EAE in Lewis rats; [11]): 7 of 7
Incidence of severe EAE (EAE in Lewis rats; [11]): 4 of 7
Mean # days with severe EAE (EAE in Lewis rats; [11]): 1.1 ± 1.2 days
Mean cum. score (EAE in Lewis rats; [11]): 8.0 ± 6.3
Mean maximal score (EAE in Lewis rats; [11]): 1.5 ± 1.0
Median cum. score (EAE in Lewis rats; [11]): 7.0
Median maximal score (EAE in Lewis rats; [11]): 2.0
% mean maximal weight loss (EAE in Lewis rats; [12]): 10.5 ± 3.6%
Incidence of EAE (EAE in Lewis rats; [12]): 7 of 7
Incidence of severe EAE (EAE in Lewis rats; [12]): 3 of 7
Mean # days with severe EAE (EAE in Lewis rats; [12]): 0.9 ± 1.2 days
Mean cum. score (EAE in Lewis rats; [12]): 7.2 ± 6.4
Mean maximal score (EAE in Lewis rats; [12]): 1.5 ± 1.4
Median cum. score (EAE in Lewis rats; [12]): 3.0
Median maximal score (EAE in Lewis rats; [12]): 0.5
day of disease onset (EAE in Lewis rats; baculovirus-derived, pretreatment days −21, −14, −7 (not shown)): did not significantly modulate
Biological activity of IFNβ in expression supernatants (BN-GP T cells): Potent activity
cytokine activity relative to HEK293-derived protein (BN-GP T cells; protein purified from baculovirus expression supernatants): less active
